The nature of this data set: label from the status in PepcDB records.
As for “MGFIVFCLIAYFVISHLSNKKDVSGNKANSNCPYCNAAFYLTENGDFNCSNCGRLFKYRDGIVYRQDERLPIVVELACTLFTILCKADGVVTKDEVSITKELLEKNFGLEDKDMKMAIDILNKSKSKPYTKTIINDLNNIFNNYDFSKTDAEDYKELILRCAMIIAFCDDGEPSNNQNKILDDIVSIFNISATKYTNLLNYFRDNCIEKNKNDYYEILGVSEGASKEEIRAAFRKLSKLYHPDRYSSKDLPPEIIKEFEEKLAKIIEAYEALK”, the protein production entry is listed as “failed”. Turning to “MGFLQRISLMITSLIILHTIPSTTSISITPDAPTMILIDSICVNTKNMYYCEQSIISKLGNPHAEIKTIADIAAFNAVYLITSAGNYIRDKFIPIAENPLVKNQLVLCLATYRAVQKLLEGAYLADRRGDYSDMRHYQSSVLGMLDNCKTDFDYMVRTNWGVRLMINISLLATRQLPAQ”, the protein production entry is “failed”. Then “MGFPKLETERLQLRELTLLDAETMFHYFSKESVIRYFGMDSFENIEQAKTTIQTFKNRYEEGSVFRWGIEKKGTGQLIGTCGFHLINHHHKRAEIGYELDDTYWGQGYASEALQAILTYGFETLQLIRIAAVVYVENKASQKLLSKAGFQEEGLLRKHMIQNGVAHDTILYSLLKEEWKK”, with “failed”; and “MGGAVLAQPPGPTPTDGVPLRSSQPAVQVEPAPTTATAAPIERLFPKLTGRVVDTAQLLTPSAQVYLAQMLERLEQTTTDQVVVATVPSLGGHSIEEFGLQLGRHWGIGRKDKNNGVLLLVAKDDRKVRIEVGYGLEGRLNDIVAHFIIDGSIIPYFKDDLYSSGIIAGATSIVSVLSSTDRPMLVYRSVEKNWYQDIEWMWWFERLFYLVFVGVPLFGFLTQWRSGDDSPVVASGDSARRETRAERDTGSSSSAFDWFDSSSSSSSSSSDSFSGGGGSFGGGGASGSW”, with “failed”. Then “MGGCPVRKRRRNGSKEGNHHSTQPKRNKRNPIFQDSQDTEFSWSDNERSSSRINIPERASGPEGNLNQIVTEPDANFPQFLHEGLSKPVYVINWFMSFGPEIKLNTSQQGRNQAV”, with “failed”; and “MGGDKIDLYKRFSILFCTIFLLLILQGTVAAESNYTVDYSTYLGDKVVDEARDVYVDDSGYIYVTGSTHVNGSKDVFVTKFNVTREVIYHTILTDTSGDDWGHRIVADGDGYAYVVGEINHDGLKVADAFISKIDPSGKEVKRVYIGGSGYDVAKGLAIDYEGNIYVSGYTISTVLNVSELGGGTARVPGTNPNATPLTDWTYHGGYDAFLARFDQDLNPVNLRYFGGSWDDYCQGIAIDYAGNIYITGYTYSDDFPVTFDAISGDKRGTTDIFLSRFTPDLNCDYSTYLGGSGPDFCYSIISRDSRIYLAGKTNSSDFPVTPNAYQKTRNGSSDGFIMVFNDYSVEYSTYLGGRGDDSINDITQDILGNLYLTGWTGSDNFPLTPGAYDSSLSGVDAFVMKFSIPKGVLYSSYLGGIEADQGYGVAVDRYQNIYVAGKTWSSNFTVTPDACKKNLTGLSDGFLTRFTPFIISNISVTPLNGTGPLTVTLRGNITNCGDSTGWYRLDLYINGYRTAGKWVEVGSLETEPFEFEYTLRNSRAYSVGVNNFPPATVRVFLGPLIIPENLRVTPSGGQEPLKVNVTADLVNYGDLPDSYTAELYIDGVLLDSRNVTVNASSRTTVSFNRTLAAGLYEITINDLEPELVYVMEGEKFYIENFTLTPQSGAAPLTVTVSAMITNIDSNPRSYTATIYVNGVPDHTKVLNIPGESTVPFSTSILLPDRGLYTISLNNNVSGTVRVLSEANFTLSNVTVSPVEGKSPLNVTVTAIVRNNGDLAGDFAVTLYLDDVAWETRTVSVPGKSSVLVSFKKELAFPGEYRLRLNSGTDVTIRVLEPDPTITGFNVTPVTGPAPLSVRASLNVTNPHDLVIGFTARLMVDGVVVQENIVSLSPGETREIAMGTLLTPGNHTVGINEFSKIVRVLRPASITLSDLRVTPSSGFSPLTITATATARNTGEVDGNYTAVLYINGLAVDEKNVTVGAGRSVQVAFNHTIENAGIYLAGIGSLTPLDVRVLSEPAISNLSATPLTGVSPHRIIVTALVSTTEEGSGNYTAGLYIDGVNVQNRTVRVTGPGSVLVSFTADISEPGEHQVTVNSLSPVTVRVLRPATFIVDSLTVSPSTGVIPFRVNASVRVTNIGDIAGNYTARLYIDGVNVQNRTVNVPAGGDVTVSFTYNITQRGNHTVWIDNPPGINVNALKPATLEIRSFSVTPGSAVGSVNANVSAEIENSGDLEGEFSIPFYLNGSLIRNETIRLGPGERGNINFQQYLSGPGVYTFSLGNLRNSTVYVNPARRKYSFTFRNTGKYTTTVTYYVTVYSSTGAKLGYRTFKFTLKPGRSYSATIGYYPYDARIVTTRKIYNPSRYTRTIKLSETFRADTLSATLNYSNTIRGYRYVYIKKTFRAVNMRITVT”, with “failed”. Consider “MGGEASPRSLQDWRHVHNTIIPAHVLSLDDVRERAGRNRLEVAYLDDVLVGCSTVRPPADAPTPDAPATATVIARVLAAHRGRGFGGEMYERGLKHARALGAQVIETVVLSSNPDGLRFALKHGFAETERYLLPGDTVPWIDLRLSV”, for which the protein production entry is reported as “failed”.

“MGGGEVKMMSLLEEMKGIYSKKGGKVKPFEKFEGELKEGYRFEYEKKLCEIDVAMFGLISGDLNPVHFDEDFASKTRFGGRVVHGMLTTSLVSAAVARLPGTVVLLEQSFRYTSPVRIGDVVRVEGVVSGVEKNRYTIDVKCYTGDKVVAEGVVKVLIW”: the protein production entry is listed as “not failed”. “MGGITITAVISNRDKVTFGEVADHYHSNKLIFGLKYFKNWVLERVAAWFPIPSWRAKFHKMRGVNLGKNVYVGYDVVFDRLHPEMITVGDYSEIGDRCILSAHSRGSLTTRQAYPRTIEPIKIGCGVSVNPGCIITQGVEIGDNSIIGIGSVVTRDISPNSLALGYPARVIKKLDGVGELQTSFNDT”: the protein production result is on record as “failed”. Take “MGGRIASLLLDELHASTTVAAGVCLGYPFHPLGKPAQLRTHHLIDLSAPCLIFQGERDAMGRQDEVEVYSMSSAVTLQWIPDGDHSFSPRKRSGRTEEQNLCLAVQHVHSFLDSV”: the protein production entry is reported as “failed”.

In the case of “MGHHHHHHSHGIVPGSVVLMAGEPGVGKSTLLLEVASRWASMKEGDGTRTALYVTAEESAGQVRLRAERTAAVKDTLYLAAESNLDVVFGHVNQVKPSLLIVDS”, the protein production entry is recorded as “failed”. With “MGHHHHHHSHGYLLKPEFMRRPDKSFDPFTEVIVDGIVANALRVKVISGQFLSDRKVGIYVEVDMFGLPVDTRRKYRTRTSQGNSFNPVWDEEPFDFPKVVLPTLASLRIAAFEEGGKFVGHRILPVSAIRSGYHYVCLRNEANQPLCLPALLIYTEASDYIPDDHQDYAEALINPIKHVSLMDQRARQLAALIG”, the protein production result is given as “failed”. Then “MGHHHHHHSHMACYIYQLPSWVLDDLCRNMDALSEWDWMEFASYVITDLTQLRKIKSMERVQGVSITRELLWWWGMRQATVQQLVDLLCRLELYRAAQIILNWKPAPEIRCPIPAFPDSVK”, with “failed”; and “MGHHHHHHSHMADVEDGEETCALASHSGSSGSKSGGDKMFSLKKWNAVAMWSWDVECDTCAICRVQVMDACLRCQAENKQEDCVVVWGECNHSFHNCCMSLWVKQNNRCPLCQQDWVVQRIGK”, with “failed”; and “MGHHHHHHSHMAGPSNVPAFLTKLWTLVSDPDTDALICWSPSGNSFHVFDQGQFAKEVLPKYFKHNNMASFVRQLNMYGFRKVVHIEQGGLVKPERDDTEFQHPCFLRGQEQLLENIKRKVTSVS”, with “not failed”.

“MGHHHHHHSHMAILIAFMKQRRMGLNDFIQKIANNSYACKHPEVQSILKISQPQEPELMNANPSPPPSPSQQINLGPSSNPHAKPSDFHFL”: the protein production entry was “failed”. As for “MGHHHHHHSHMARPLVPSSQKALLLELKGLQEEPVEGFRVTLVDEGDLYNWEVAIFGPPNTYYEGGYFKARLKFPIDYPYSPPAFRFLTKMWHPNIYETGDVCISILHPPVDDPQSGELPSERWNPTQNVRTILLSVISLLNEPNTFSPANVDASVMYRKWKESKGKDREYTDIIRKQVLGTKVDAERDGVKVPTTLAEYCVKTKAPAPDEGSDLFYDDYYEDGEVEEEADSCFGDDEDDSGTEES”, the entry is “failed”. As for “MGHHHHHHSHMATGEEVPRTIIVTTRSQYGLPEDAIVYCNFNQLYKIDPSTLQMWANILKRVPNSVLWLLRFPAVGEPNIQQYAQNMGLPQNRIIFSPVAPKEEHVRRGQLADVCLDTPLCNG”, the entry is “failed”. As for “MGHHHHHHSHMATSSQYRQLLSDYGPPSLGYTQGTGNSQVPQSKYAELLAIIEELGKEIRPTYAGSKSAMERLKRGIIHARGLVRECLAETERNARS”, the protein production result is reported as “not failed”.
